Changes are numbered by the printed parent chain. Names and notes keep the numbering of the source.
Biological target: T1, EsCas13d, nuclease-dead (Eubacterium siraeum, UniProt B0MS50, R295A;H300A;R849A;H854A)
T1 sequence: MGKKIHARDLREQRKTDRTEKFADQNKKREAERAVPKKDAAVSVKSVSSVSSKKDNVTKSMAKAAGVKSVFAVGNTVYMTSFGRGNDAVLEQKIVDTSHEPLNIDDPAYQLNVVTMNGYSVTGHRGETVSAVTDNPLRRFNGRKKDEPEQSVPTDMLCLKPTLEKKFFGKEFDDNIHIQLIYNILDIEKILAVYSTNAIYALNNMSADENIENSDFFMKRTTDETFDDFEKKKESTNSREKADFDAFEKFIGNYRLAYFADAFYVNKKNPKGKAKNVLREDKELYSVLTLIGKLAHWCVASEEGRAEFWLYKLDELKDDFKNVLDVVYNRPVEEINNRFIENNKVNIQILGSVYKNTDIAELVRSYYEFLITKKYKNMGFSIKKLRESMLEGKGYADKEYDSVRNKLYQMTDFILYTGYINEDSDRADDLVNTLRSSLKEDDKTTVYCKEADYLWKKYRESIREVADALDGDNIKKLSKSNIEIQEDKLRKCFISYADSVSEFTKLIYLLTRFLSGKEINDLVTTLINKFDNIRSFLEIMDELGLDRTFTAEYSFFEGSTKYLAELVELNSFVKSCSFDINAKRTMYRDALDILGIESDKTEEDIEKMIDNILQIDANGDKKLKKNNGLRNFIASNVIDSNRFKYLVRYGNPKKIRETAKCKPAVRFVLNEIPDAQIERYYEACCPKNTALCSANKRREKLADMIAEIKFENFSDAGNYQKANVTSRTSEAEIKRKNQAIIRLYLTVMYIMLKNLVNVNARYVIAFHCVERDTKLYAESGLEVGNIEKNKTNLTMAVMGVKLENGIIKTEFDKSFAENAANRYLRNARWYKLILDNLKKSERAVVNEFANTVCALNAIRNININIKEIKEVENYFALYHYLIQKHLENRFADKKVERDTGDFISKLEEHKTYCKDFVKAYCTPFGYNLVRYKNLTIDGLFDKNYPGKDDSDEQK
Assay: crRNA (strand 1, pre-loaded); Mg2+; 40 mM Tris-HCl pH 7.5, 150 mM NaCl, 6 mM MgCl2, 1 mM DTT, 0.1% Tween-20, 0.2 mg/ml BSA; 25 C; 10 min per concentration, then washed
Settings: tags: His6-TwinStrep-SUMO cleaved; N-terminal SNAP kept (SNAP-Surface 488); label: 3' end held by stalled T7 RNA polymerase

B1: target 1 A9C,G17U (mixed)
RNA 1: CACCCGUGCAAAAAUGCAGGGGUCUAAAACUGAGCGGAUAACCUCUCUAUGG
RNA 2: GGGAAUGGAUCCACAUCUACGAAUUCGUACCAUAUAGAGGUUCUCCGCUCACCGAGAUCGGAAGAGCACACGU
Work on B1 yielded a Kd of 62 ± 23 nM.

B2: target 1 insC 3' of 12,insG 3' of 3 (mixed)
RNA 1: B1 RNA 1
RNA 2: GGGAAUGGAUCCACAUCUACGAAUUCGUACCAUAGAGAGGCUUAUCCGCUGCACCGAGAUCGGAAGAGCACACGU
In the case of B2, the Kd is reported as 7.6 ± 0.7 nM.

B3: target 1 insU 3' of 18,insU 3' of 13 (mixed)
RNA 1: B1 RNA 1
RNA 2: GGGAAUGGAUCCACAUCUACGAAUUCGUACCAUAUGAGAGUGUUAUCCGCUCACCGAGAUCGGAAGAGCACACGU
With B3 the Kd was 38 ± 14 nM.

B4: target 1 insA 3' of 13,insU 3' of 5 (mixed)
RNA 1: B1 RNA 1
RNA 2: B2 RNA 2 with G40A, C41G, C49U, U50C, G51U
B4 gave a Kd of 4.34 ± 0.32 nM.

B5: target 1 insC 3' of 22,insA 3' of 5 (mixed)
RNA 1: B1 RNA 1
RNA 2: GGGAAUGGAUCCACAUCUACGAAUUCGUACCCAUAGAGAGGUUAUCCGACUCACCGAGAUCGGAAGAGCACACGU
With B5 the Kd was 19 ± 4 nM.

B6: target 1 insA 3' of 13,insA 3' of 5 (mixed)
RNA 1: B1 RNA 1
RNA 2: B2 RNA 2 with G40A, C41G, C49A, U50C, G51U
For B6, the Kd was 3.4 ± 0.5 nM.

B7: target 1 G13A,A18C (mixed)
RNA 1: B1 RNA 1
RNA 2: B1 RNA 2 with A34C, U35G, G39A, C43A
Binder B7 has a Kd of 51 ± 8 nM.

B8: target 1 C2G,C7U (mixed)
RNA 1: B1 RNA 1
RNA 2: B1 RNA 2 with U35G, C43A, C45U, C50G
B8 showed a Kd of 3.82 ± 0.29 nM.

B9: target 1 C6A,G15C (mixed)
RNA 1: B1 RNA 1
RNA 2: B1 RNA 2 with U35G, G37C, C43A, C46A
For B9, the Kd was 56 ± 6 nM.

B10: target 1 insG 3' of 14,insC 3' of 13 (mixed)
RNA 1: B1 RNA 1
RNA 2: B3 RNA 2 with U35G, G36A, A37G, G38A, A39G, U41C
With B10 the Kd was 13.7 ± 0.9 nM.

B11: target 1 insG 3' of 1 (mixed)
RNA 1: B1 RNA 1
RNA 2: GGGAAUGGAUCCACAUCUACGAAUUCGUACCAUAGAGAGGUUAUCCGCUCAGCCGAGAUCGGAAGAGCACACGU
B11 was tested, and the Kd was 9 ± 0.7 nM.

B12: target 1 insU 3' of 20,insA 3' of 8 (mixed)
RNA 1: B1 RNA 1
RNA 2: B5 RNA 2 with C32A, A33U, C46A, G48C, A49G
In the case of B12, the Kd is reported as 25.3 ± 2 nM.

B13: target 1 U11G,G17A (mixed)
RNA 1: B1 RNA 1
RNA 2: B1 RNA 2 with U35A, U41G, C43A
For B13, the Kd was 74 ± 22 nM.

B14: target 1 insA 3' of 4,insA 3' of 3 (mixed)
RNA 1: B1 RNA 1
RNA 2: B2 RNA 2 with C41U, U43A, A44U, U45C, C47G, G48C, C49A, G51A
With B14 the Kd was 7.01 ± 0.33 nM.

B15: target 1 insA 3' of 22,insA 3' of 3 (mixed)
RNA 1: B1 RNA 1
RNA 2: B5 RNA 2 with C31A, A49C, C50U, U51A
For B15, the Kd was 11.1 ± 0.6 nM.

B16: target 1 insC 3' of 12,insC 3' of 10 (mixed)
RNA 1: B1 RNA 1
RNA 2: B2 RNA 2 with A44C, U45A, C46U, G48C, C49G, U50C, G51U
Work on B16 yielded a Kd of 23.9 ± 2.9 nM.

B17: target 1 insG 3' of 11,insU 3' of 4 (mixed)
RNA 1: B1 RNA 1
RNA 2: B2 RNA 2 with C41U, U42G, G51U
B17 showed a Kd of 65 ± 15 nM.

B18: target 1 insA 3' of 6,insU 3' of 6 (mixed)
RNA 1: B1 RNA 1
RNA 2: B2 RNA 2 with C41U, U43A, A44U, U45C, C47A, G48U, C49G, U50C, G51U
B18 gave a Kd of 28.9 ± 1.4 nM.

B19: target 1 A16C,C22U (mixed)
RNA 1: B1 RNA 1
RNA 2: B1 RNA 2 with C30U, U35G, A36C, C43A
B19 gave a Kd of 57 ± 12 nM.

B20: target 1 insU 3' of 6,insG 3' of 6 (mixed)
RNA 1: B1 RNA 1
RNA 2: B2 RNA 2 with C41U, U43A, A44U, U45C, C47U, C49G, U50C, G51U
With B20 the Kd was 13.1 ± 0.5 nM.

B21: target 1 U11A,A20C (mixed)
RNA 1: B1 RNA 1
RNA 2: B1 RNA 2 with A32C, U35G, U41A, C43A
Work on B21 yielded a Kd of 80 ± 40 nM.

B22: target 1 insC 3' of 14,insA 3' of 5 (mixed)
RNA 1: B1 RNA 1
RNA 2: B2 RNA 2 with G39C, C41G, C49A, U50C, G51U
Binder B22 has a Kd of roughly 60 nM.

B23: target 1 insC 3' of 17,insG 3' of 8 (mixed)
RNA 1: B1 RNA 1
RNA 2: B3 RNA 2 with U35G, G36C, U41G, G42U, U44A, A45U, U46G
B23 gave a Kd of 58 ± 16 nM.

B24: target 1 insC 3' of 8,insG 3' of 4 (mixed)
RNA 1: B1 RNA 1
RNA 2: B2 RNA 2 with C41U, U43A, A44U, U45C, U50G, G51U
Work on B24 yielded a Kd of 12.8 ± 0.8 nM.

B25: target 1 insA 3' of 22,insG 3' of 9 (mixed)
RNA 1: B1 RNA 1
RNA 2: B5 RNA 2 with C31A, U45G, C46U, G48C, A49G
Work on B25 yielded a Kd of 19.6 ± 1 nM.

B26: target 1 insA 3' of 19,insU 3' of 2 (mixed)
RNA 1: B1 RNA 1
RNA 2: B5 RNA 2 with C32A, A33U, U34A, A49C, C50U, U51C, C52U
B26 was tested, and the Kd was 23 ± 2 nM.

B27: target 1 U10C,A20U (mixed)
RNA 1: B1 RNA 1
RNA 2: B1 RNA 2 with A32U, U35G, U42C, C43A
B27 gave a Kd of 99 ± 14 nM.

B28: target 1 del4,del11 (mixed)
RNA 1: B1 RNA 1
RNA 2: GGGAAUGGAUCCACAUCUACGAAUUCGUACCAUAGAGAGGUAUCCGUCACCGAGAUCGGAAGAGCACACGU
In the case of B28, the Kd is reported as 100 ± 40 nM.

B29: target 1 C7A,U19A (mixed)
RNA 1: B1 RNA 1
RNA 2: B1 RNA 2 with U33A, U35G, C43A, C45A
B29 was tested, and the Kd was 48 ± 5 nM.

B30: target 1 insC 3' of 9,insU 3' of 2 (mixed)
RNA 1: B1 RNA 1
RNA 2: B2 RNA 2 with C41U, U43A, A44C, G51C, C52U
B30 gave a Kd of 13.9 ± 0.9 nM.

B31: target 1 C2A,A16G (mixed)
RNA 1: B1 RNA 1
RNA 2: B1 RNA 2 with U35G, A36G, C43A, C50A
With B31 the Kd was 28.5 ± 2 nM.

B32: target 1 A9G,G17A (mixed)
RNA 1: B1 RNA 1
RNA 2: B1 RNA 2 with U35A, C43G
B32 was tested, and the Kd was 57 ± 12 nM.

B33: target 1 insU 3' of 12,insA 3' of 4 (mixed)
RNA 1: B1 RNA 1
RNA 2: B2 RNA 2 with C41U, U50A, G51U
For B33, the Kd was 6.6 ± 0.8 nM.

From paper PMC10786891, “Massively parallel profiling of RNA-targeting CRISPR-Cas13d”
